The test system of data set [1] is HeLa Kyoto. The data set is described as follows: solubility change mitosis vs G1/S (difference of NP-40 vs SDS log2 ratios) (log2 ratio difference); higher = more soluble in mitosis.
Data set [2] has as its system HeLa Kyoto. Kind of data set: melting temperature (median over replicates), in situ; higher = more thermally stable.
Data set [3] deals with HeLa Kyoto. The data set is described as follows: thermal stability score vs G1/S (z-score of summed log2 fold changes over temperatures); higher = more thermally stable than in G1/S.
Data set [4] relates to HeLa Kyoto. Kind of data set: solubility in G1/S (NP-40 vs SDS abundance) (log2 ratio); higher = more soluble. Particulars: cell cycle stage: G1/S.
[5] abbreviates: cell cycle stage: early G1 (4.5 h after nocodazole release).
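Wherever melting temperature (median over replicates), in situ is given: HeLa Kyoto cells synchronized by double thymidine or nocodazole block, proteins quantified by TMT10plex mass spectrometry, three independent biological replicates.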
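Wherever solubility change mitosis vs G1/S (difference of NP-40 vs SDS log2 ratios) is given: synchronized HeLa Kyoto cells (double thymidine block for G1/S, nocodazole release for mitosis), protein amounts in NP-40 versus SDS lysates quantified by mass spectrometry, three biological replicates.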
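Wherever solubility in G1/S (NP-40 vs SDS abundance) is given: HeLa Kyoto cells arrested at G1/S by double thymidine block, proteins quantified by TMT10plex mass spectrometry in mild NP-40 versus SDS extracts, three biological replicates.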
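Wherever thermal stability score vs G1/S (z-score of summed log2 fold changes over temperatures) is given: synchronized HeLa Kyoto cells, proteins quantified by TMT10plex mass spectrometry, three biological replicates, mitosis taken 0.5 h after nocodazole release, G1/S directly after double thymidine block.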

For “MTAPCPPPPPDPQFVLRGTQSPVHALHFCEGAQAQGRPLLFSGSQSGLVHIWSLQTRRAVTTLDGHGGQCVTWLQTLPQGRQLLSQGRDLKLCLWDLAEGRSAVVDSVCLESVGFCRSSILAGGQPRWTLAVPGRGSDEVQILEMPSKTSVCALKPKADAKLGMPMCLRLWQADCSSRPLLLAGYEDGSVVLWDVSEQKVCSRIACHEEPVMDLDFDSQKARGISGSAGKALAVWSLDWQQALQVRGTHELTNPGIAEVTIRPDRKILATAGWDHRIRVFHWRTMQPLAVLAFHSAAVQCVAFTADGLLAAGSKDQRISLWSLYPRA [GNB1L]”, the “solubility change mitosis (log2)” value with HeLa Kyoto [1] is -0.205. The values for the melting temperature in the data set on HeLa Kyoto [2] (cell cycle stage: G1/S) and with HeLa Kyoto [2] (cell cycle stage: mitosis) were 54.6 °C and 54.2 °C, respectively. The thermal stability score in the data set with HeLa Kyoto [3] (setting [5]) is -0.681; in the data set with HeLa Kyoto [3] (cell cycle stage: mitosis), -0.0471. Also, the “solubility in G1/S (log2)” value with HeLa Kyoto [4] was found to be 0.0814.

On to “MTATVENLTFQKDTLGNAVDKNTSRLELRSYSLAGRHGSTEPLVLAWSSQFRRLTWGCALDALHRSPCVAASQHGVTHLIRSSRTPHSTRCRKEDAQPGHHGNGAASVTAQARGQRSVLQVPLPVPRSCLFSESFVVSVSSQSRFLASVPGTGVQRSTAADMAASTAAGKQRIPKVAKVKNKAPAEVQITAEQLLREAKERELELLPPPPQQKITDEEELNDYKLRKRKTFEDNIRKNRTVISNWIKYAQWEESLKEIQRARSIYERALDVDYRNITLWLKYAEMEMKNRQVNHARNIWDRAITTLPRVNQFWYKYTYMEEMLGNVAGARQVFERWMEWQPEEQAWHSYINFELRYKEVDRARTIYERFVLVHPDVKNWIKYARFEEKHAYFAHARKVYERAVEFFGDEHMDEHLYVAFAKFEENQKEFERVRVIYKYALDRISKQDAQELFKNYTIFEKKFGDRRGIEDIIVSKRRFQYEEEVKANPHNYDAWFDYLRLVESDAEAEAVREVYERAIANVPPIQEKRHWKRYIYLWINYALYEELEAKDPERTRQVYQASLELIPHKKFTFAKMWILYAQFEIRQKNLSLARRALGTSIGKCPKNKLFKVYIELELQLREFDRCRKLYEKFLEFGPENCTSWIKFAELETILGDIDRARAIYELAISQPRLDMPEVLWKSYIDFEIEQEETERTRNLYRRLLQRTQHVKVWISFAQFELSSGKEGSLTKCRQIYEEANKTMRNCEEKEERLMLLESWRSFEEEFGTASDKERVDKLMPEKVKKRRKVQTDDGSDAGWEEYFDYIFPEDAANQPNLKLLAMAKLWKKQQQEKEDAEHHPDEDVDESES [CRNKL1]”, for which, in the data set on HeLa Kyoto [1], the “solubility change mitosis (log2)” value was determined as 0.252. Besides, the melting temperature in the data set with HeLa Kyoto [2] (cell cycle stage: G1/S) amounted to 47.4 °C; in the data set with HeLa Kyoto [2] (cell cycle stage: mitosis), 48 °C. The thermal stability score worked out at 1.73 in the data set with HeLa Kyoto [3] (setting [5]) and 2.31 in the data set with HeLa Kyoto [3] (cell cycle stage: mitosis). Further, in the data set on HeLa Kyoto [4], the “solubility in G1/S (log2)” value is -0.64.

Consider “MTCWLRGVTATFGRPAEWPGYLSHLCGRSAAMDLGPMRKSYRGDREAFEETHLTSLDPVKQFAAWFEEAVQCPDIGEANAMCLATCTRDGKPSARMLLLKGFGKDGFRFFTNFESRKGKELDSNPFASLVFYWEPLNRQVRVEGPVKKLPEEEAECYFHSRPKSSQIGAVVSHQSSVIPDREYLRKKNEELEQLYQDQEVPKPKSWGGYVLYPQVMEFWQGQTNRLHDRIVFRRGLPTGDSPLGPMTHRGEEDWLYERLAP [PNPO]”, for which, in the data set with HeLa Kyoto [1], the “solubility change mitosis (log2)” value is -0.0358. Moreover, the melting temperature is 53.5 °C with HeLa Kyoto [2] (cell cycle stage: G1/S) and 54.3 °C in the data set with HeLa Kyoto [2] (cell cycle stage: mitosis). In addition, the thermal stability score was -1.68 in the data set with HeLa Kyoto [3] (setting [5]) and -1.82 with HeLa Kyoto [3] (cell cycle stage: mitosis). The “solubility in G1/S (log2)” value with HeLa Kyoto [4] is 0.682.

On to “MTDAAVSFAKDFLAGGVAAAISKTAVAPIERVKLLLQVQHASKQITADKQYKGIIDCVVRIPKEQGVLSFWRGNLANVIRYFPTQALNFAFKDKYKQIFLGGVDKRTQFWLYFAGNLASGGAAGATSLCFVYPLDFARTRLAADVGKAGAEREFRGLGDCLVKIYKSDGIKGLYQGFNVSVQGIIIYRAAYFGIYDTAKGMLPDPKNTHIVISWMIAQTVTAVAGLTSYPFDTVRRRMMMQSGRKGTDIMYTGTLDCWRKIARDEGGKAFFKGAWSNVLRGMGGAFVLVLYDEIKKYT [SLC25A5]”, for which, in the data set on HeLa Kyoto [1], the “solubility change mitosis (log2)” value was -0.12. Moreover, the melting temperature with HeLa Kyoto [2] (cell cycle stage: G1/S) came to 56.9 °C; with HeLa Kyoto [2] (cell cycle stage: mitosis) it was 55.9 °C. Also, the thermal stability score in the data set with HeLa Kyoto [3] (setting [5]) was -2.25; with HeLa Kyoto [3] (cell cycle stage: mitosis), -3.52. The “solubility in G1/S (log2)” value in the data set on HeLa Kyoto [4] is -0.308.

For the sequence “MTEADVNPKAYPLADAHLTKKLLDLVQQSCNYKQLRKGANEATKTLNRGISEFIVMAADAEPLEIILHLPLLCEDKNVPYVFVRSKQALGRACGVSRPVIACSVTIKEGSQLKQQIQSIQQSIERLLV [SNU13]”, the “solubility change mitosis (log2)” value in the data set on HeLa Kyoto [1] worked out at 1.04. Moreover, the melting temperature came out at 54.6 °C in the data set on HeLa Kyoto [2] (cell cycle stage: G1/S) and 53 °C with HeLa Kyoto [2] (cell cycle stage: mitosis). In addition, the figures for the thermal stability score in the data set on HeLa Kyoto [3] (setting [5]) and in the data set with HeLa Kyoto [3] (cell cycle stage: mitosis) were -3.84 and -7.97, respectively. For the same sequence, the “solubility in G1/S (log2)” value in the data set with HeLa Kyoto [4] is -0.625.
